Measurements taken from paper PMC10512533, “A strategy to enhance and modify fatty acid synthesis in Corynebacterium glutamicum and Escherichia coli: overexpression of acyl-CoA thioesterases” (Microbial Cell Factories, 2023).

How the values were obtained:
Assay in all cases: thioesterase assay, Lineweaver-Burk plot
[1] = molecular target: T1, TesA (Corynebacterium glutamicum, UniProt Q8NMW3); format: biochemical; settings: optimal substrate; assay conditions of the kinetics not stated (optimum 30 °C, pH 8.0)
T1 construct: gene Cgl2451; full length in pET-28a(+), His-tag (Ni-NTA), E. coli BL21(DE3); forward primer encodes MAANN start; TE1 family
T1 sequence (Q8NMW3 1-155): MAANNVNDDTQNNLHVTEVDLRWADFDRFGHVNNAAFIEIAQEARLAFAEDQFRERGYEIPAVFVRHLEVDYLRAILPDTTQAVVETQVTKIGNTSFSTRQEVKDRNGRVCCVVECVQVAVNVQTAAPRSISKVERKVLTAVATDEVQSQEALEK
From the text: thioesterase assay, Lineweaver-Burk plot on TesA | of TesA estimated through fitting to the Michaelis–Menten equation

[2] = substrate: CC(=O)SCCNC(=O)CCNC(=O)[C@H](O)C(C)(C)COP(=O)(O)OP(=O)(O)OC[C@H]1O[C@@H](n2cnc3c(N)ncnc32)[C@H](O)[C@@H]1OP(=O)(O)O; format: biochemical, Corynebacterium glutamicum; settings: optimal substrate, assay conditions of the kinetics not stated (optimum 30 °C, pH 9.0)
[3] = substrate: CCCCCCCC(=O)SCCNC(=O)CCNC(=O)[C@H](O)C(C)(C)COP(=O)(O)OP(=O)(O)OC[C@H]1O[C@@H](n2cnc3c(N)ncnc32)[C@H](O)[C@@H]1OP(=O)(O)O; format: biochemical, Corynebacterium glutamicum; settings: optimal substrate, assay conditions of the kinetics not stated (optimum 30 °C, pH 8.0), authors' other TesB properties (Fig. 5) come from their previous studies

Question: Which Km [1] does the source give for CCCCCCCCCCCC(=O)SCCNC(=O)CCNC(=O)[C@H](O)C(C)(C)COP(=O)(O)OP(=O)(O)OC[C@H]1O[C@@H](n2cnc3c(N)ncnc32)[C@H](O)[C@@H]1OP(=O)(O)O [C12, lauroyl-CoA] here?
Answer: 1380 µM

B1: TE9 (Corynebacterium glutamicum ATCC 13032) (protein)
chain: MFLTLSGADMSALIKGSGPHHVVVLNGWFGHAAGWGAFADYLDLGNYTWHFWDYRGYGNRKDDAGEFTLEEISADIVAYIDSIEAEKVSILGHSMGGVFMQKVLADSATPIASLVGISAVAAAGTPFDEDSRKLFTSAGHNPDSRRAIIDFTSGSRQPAAWLDDLTDSTVQNSTPEAVEKYFFAWADCNFAADLGTQDLPVYILTGDLDPAVTKTAVESAFGPIYQNLTVEELHDVGHYAIFEHPLGLAARVLRFLDAV
notes: full length in pET-28a(+), His-tag (Ni-NTA), E. coli BL21(DE3); forward primer encodes MFLTL start
Question: For B1, which Km [2] is on record?
Answer: 1810 µM

B2: TesB (Corynebacterium glutamicum ATCC 13032) (protein)
chain: MKTIEDILTLEEIDRDIYRGPVIESYLARTFGGQVAAQALVAATHTVDKAFTVHSLHGYFIAPGDPTAPAIYLVDRVRDGKSYVTRSVRGIQDGEVIFSMQASFHRGDEGIEHMDKMRKVPAPDEIKGTVERMPISSRRVLDEWAEWDIRVIPQDQLELSDFTATEQAVWIRCTADLPDNPTFHQCSLTYLSDMTLLHSALVPHPGEKMQMASLDHAVWFLRPFRVDEWLLYDQRSPSASSGRALTHGRLFNQQGDLVAIVNQEGMTRTLHEGAQSIPMRKD
notes: full length in pET-28a(+), His-tag (Ni-NTA), E. coli BL21(DE3); forward primer encodes MKTIE start; TE4 family
Question: For B2, which Km [3] is on record?
Answer: 5450 µM
